What is called Kd is the concentration at which binding is half-saturated. A lower Kd goes with a tighter complex. The term IC50 denotes the midpoint of a concentration-inhibition curve. High values mean weaker potency, low ones greater potency.

The target in test [1] is T1, xanthine phosphoribosyltransferase PTS1 peptide (Leishmania donovani). Nature of the test: fluorescence polarization. For orientation: Polarisation of emitted light reports the rotation of a fluorescent probe.
Test [2] has as its target T2, galactokinase PTS1 peptide (Leishmania donovani). Nature of the test: fluorescence polarization.
The target in test [3] is T3, phosphofructokinase PTS1 peptide (Leishmania donovani). Nature of the test: fluorescence polarization.
In test [4] the target is T1, xanthine phosphoribosyltransferase PTS1 …. Nature of the test: fluorescence polarization competition.
Test [5] deals with T2, galactokinase PTS1 peptide. Nature of the test: fluorescence polarization competition.
For test [6], the target named is T3, phosphofructokinase PTS1 peptide. Nature of the test: fluorescence polarization competition.

B1: PEX5 303-625 (protein)
chain: RLQKVTNSTDYPFEPNNPYMFHDFPFDEGMEMLQLGNLAEAALAFEAVCHKDSSNEKAWQILGTTQAENEKDGLAIIALNNARKLNPRNLEVHAALSVSHTNERNADAAMDSLKAWLVNHPEYEQLASVSIPPNAELDVQETFFFADPSRMREARTLYEAAIEMNPSDSQLFTNLGVLHNVAHEFDEAAECFRKAVALHPDDPKMWNKLGATLANGGHPDQALEAYNRALDINPGYVRAMYNMAVAYSNMSQYNMAARQIVKAIASQQGGTKPSGEGSIMATRNMWDLLRMTLNLMDRDDLVQLTYNEQLEPFVKEFGLEGHV
For the molecule B1, the figures for the dissociation constant (Kd) in test [1], in test [2] and in test [3] were 78 nM, 382 nM and 102 nM, respectively. The IC50 in test [4] was 3610 nM; in test [5] it was 10600 nM; in test [6], > 60000 nM.

The values are drawn from PMC11054337 (2024).
